Laboratory results: article PMC11891296, “Mechanical forces and ligand binding modulate Pseudomonas aeruginosa PilY1 mechanosensitive protein” (Life Science Alliance, 2025)

Target: T1, recombinant αVβ5 human integrin extracellular domains (human, UniProt P06756 31-992; P18084 24-719)
T1 construct: integrin alpha-V, human, extracellular domain; integrin beta-5, human, extracellular domain; also called integrin αVβ5 heterodimer; source: bought: R&D Systems
Assay: single-molecule magnetic tweezers; PilY1 construct tethered between HaloTag-ligand glass and streptavidin-coated superparamagnetic bead, held at constant low force (5-6 pN, below 7 pN) where I1 and I2 fold and unfold; 200 nM integrin added in binding buffer (10 mM Hepes pH 7.2, 150 mM NaCl, 10 mM ascorbic acid, 2 mM CaCl2, 1 mM MgCl2, 1 mM MnCl2); binding read as shortening of the unfolded extension of I2
Details: both partners purified

T1 sequence (P06756 31-992, chain 1 of 2): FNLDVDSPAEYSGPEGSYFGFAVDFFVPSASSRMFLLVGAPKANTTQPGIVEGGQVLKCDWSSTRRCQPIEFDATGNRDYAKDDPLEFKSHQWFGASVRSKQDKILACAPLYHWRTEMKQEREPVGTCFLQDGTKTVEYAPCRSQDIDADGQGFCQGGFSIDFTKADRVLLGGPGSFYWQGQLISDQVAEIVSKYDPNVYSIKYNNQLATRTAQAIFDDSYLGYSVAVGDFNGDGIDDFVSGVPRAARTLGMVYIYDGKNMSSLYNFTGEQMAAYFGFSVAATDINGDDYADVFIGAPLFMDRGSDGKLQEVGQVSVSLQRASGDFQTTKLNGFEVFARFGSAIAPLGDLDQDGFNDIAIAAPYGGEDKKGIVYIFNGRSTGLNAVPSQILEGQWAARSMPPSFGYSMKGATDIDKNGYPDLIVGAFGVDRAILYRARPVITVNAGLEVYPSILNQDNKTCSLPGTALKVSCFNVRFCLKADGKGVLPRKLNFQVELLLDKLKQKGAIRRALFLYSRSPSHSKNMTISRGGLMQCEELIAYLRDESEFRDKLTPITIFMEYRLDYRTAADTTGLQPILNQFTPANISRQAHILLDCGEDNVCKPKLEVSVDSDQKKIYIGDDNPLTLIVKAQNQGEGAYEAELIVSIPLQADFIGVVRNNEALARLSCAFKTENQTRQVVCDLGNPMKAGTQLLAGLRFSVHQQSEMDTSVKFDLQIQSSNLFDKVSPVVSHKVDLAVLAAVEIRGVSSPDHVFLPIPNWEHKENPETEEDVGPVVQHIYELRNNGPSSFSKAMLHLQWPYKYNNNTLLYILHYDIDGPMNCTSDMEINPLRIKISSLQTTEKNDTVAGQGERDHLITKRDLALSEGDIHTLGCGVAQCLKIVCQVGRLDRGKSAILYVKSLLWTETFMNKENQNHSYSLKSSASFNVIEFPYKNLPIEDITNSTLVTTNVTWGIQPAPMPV
T1 sequence (P18084 24-719, chain 2 of 2): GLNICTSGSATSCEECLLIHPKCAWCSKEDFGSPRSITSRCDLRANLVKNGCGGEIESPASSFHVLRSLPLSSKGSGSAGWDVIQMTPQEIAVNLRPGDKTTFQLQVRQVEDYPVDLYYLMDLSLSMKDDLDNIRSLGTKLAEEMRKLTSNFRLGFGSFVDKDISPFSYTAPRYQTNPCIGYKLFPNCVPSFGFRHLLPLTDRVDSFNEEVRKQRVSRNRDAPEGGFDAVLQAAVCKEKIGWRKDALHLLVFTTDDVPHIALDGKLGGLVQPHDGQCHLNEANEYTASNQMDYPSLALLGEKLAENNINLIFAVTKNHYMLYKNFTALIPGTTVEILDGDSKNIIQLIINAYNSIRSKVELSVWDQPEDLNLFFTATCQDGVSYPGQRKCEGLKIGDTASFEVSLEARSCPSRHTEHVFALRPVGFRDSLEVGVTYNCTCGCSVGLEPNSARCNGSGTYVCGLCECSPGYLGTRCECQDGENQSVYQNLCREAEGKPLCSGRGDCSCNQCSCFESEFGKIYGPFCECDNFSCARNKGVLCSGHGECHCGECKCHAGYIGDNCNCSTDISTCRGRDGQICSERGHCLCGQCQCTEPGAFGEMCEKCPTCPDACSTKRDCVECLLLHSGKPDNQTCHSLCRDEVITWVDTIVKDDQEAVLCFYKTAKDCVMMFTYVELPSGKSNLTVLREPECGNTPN

B1: PilY1^501−1161 chimeric polyprotein (HaloTag-(I32)2-PilY1 residues 501-1161-(I32)2-HisTag-AviTag) (domain or fragment)
chain: ISSSLQEDDTGDKLTRFAYQTSFASDKNWAGDLTRYSLTTQDKATVQTKLWSAQSILDAMPNGGAGRKIMMAGSGTSGLKEFTWGSLSADQQRQLNRDPDRNDVADTKGQDRVAFLRGDRRKENSDNFRTRNSILGDIINSSPATVGKAQYLTYLAQPIEPSGNYSTFAEAQKTRAPRVYVGANDGMLHGFDTDGNETFAFIPSAVFEKLHKLTARGYQGGAHQFYVDGSPVVADAFFGGAWHTVLIGSLRAGGKGLFALDVTDPANIKLLWEIGVDQEPDLGYSFPKPTVARLHNGKWAVVTGNGYSSLNDKAALLIIDLETGAITRKLEVTGRTGVPNGLSSPRLADNNSDGVADYAYAGDLQGNLWRFDLIAGKVNQDDPFSRANDGPAVASSFRVSFGGQPLYSAVDSAGAAQAITAAPSLVRHPTRKGYIVIFGTGKYFENADARADTSRAQTLYGIWDQQTKGEAAGSTPRLTRGNLQQQTLDLQADSTFASTARTIRIASQNPVNWLNNDGSTKQSGWYLDFMVNGTLKGEMLIEDMIAIGQVVLLQTITPNDDPCADGASNWTYGLDPYTGGRTSFTVFDLARQGVVDSKSDYSYNKQNVAVSGTEQKGLGGLTLSTNEQGNPEVCSSGECLTVNPGPNTRGRQNWRPIEGKN
modifications: biotin on the AviTag
notes: gene optimized for expression in E. coli; The HisTag lies between the last I32 and the AviTag; also called PilY1 C-terminal section; source: E. coli BL21 Star, purified (HisPur Cobalt resin, Superdex 200 SEC), biotinylated in vitro; not shown: HaloTag, N-terminal, kept; 2x human titin I32 domain, N-terminal, kept; 2x human titin I32 domain, C-terminal, kept; AviTag (biotinylated), C-terminal, kept
binding result: binds
